Measured values taken from patent US20150218281A1 (Ablynx, published 2015).

T1: full length human OX40L expressed on CHO cells (human, UniProt P23510 1-183)
T1 sequence: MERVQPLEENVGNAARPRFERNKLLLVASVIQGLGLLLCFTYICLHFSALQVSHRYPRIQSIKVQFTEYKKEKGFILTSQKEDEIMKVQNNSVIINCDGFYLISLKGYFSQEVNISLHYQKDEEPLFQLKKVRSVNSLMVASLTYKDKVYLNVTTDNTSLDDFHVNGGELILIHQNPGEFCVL

T2: recombinant human OX40L (extracellular domain, R&D Systems) (human, UniProt P23510 51-183)
T2 construct: also called hOX40L; rec. hOX40L
T2 sequence: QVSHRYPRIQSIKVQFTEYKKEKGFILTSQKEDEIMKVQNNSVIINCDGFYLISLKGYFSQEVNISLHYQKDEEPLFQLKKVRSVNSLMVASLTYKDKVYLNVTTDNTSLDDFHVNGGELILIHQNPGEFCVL

T3: cynomolgus OX40L expressed on CHO cells (cynomolgus monkey, UniProt P23510 1-183 (human entry))
T3 construct: also called cynoOX40L; CHO-cynoOX40L
T3 chain: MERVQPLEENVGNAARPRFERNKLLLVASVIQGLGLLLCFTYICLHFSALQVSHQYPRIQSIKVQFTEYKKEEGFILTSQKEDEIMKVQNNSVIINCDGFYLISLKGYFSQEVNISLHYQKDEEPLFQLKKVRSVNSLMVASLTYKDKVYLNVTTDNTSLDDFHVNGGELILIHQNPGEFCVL

T4: biotinylated hOX40L (R&D Systems, biotinylated in house) (human, UniProt P23510 51-183, biotinylated with Sulfo-NHS-LC-Biotin, sites not stated)
T4 construct: same bought protein as m10, biotinylated; also called biotinylated OX40L
T4 sequence: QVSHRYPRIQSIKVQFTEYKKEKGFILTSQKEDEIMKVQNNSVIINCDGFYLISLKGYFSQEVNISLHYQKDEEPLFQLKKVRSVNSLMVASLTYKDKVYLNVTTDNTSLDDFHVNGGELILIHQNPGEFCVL

B1: OX40L01E07 (VHH)
VHH: EVQLVESGGGLVQAGGSLRLSCAASGRTFSSIYAKGWFRQAPGKEREFVAAISRSGRSTSYADSVKGRFTISRDNAKNTVYLQMNSLKPEDTAVYYCAAVGGATTVTASEWDYWGLGTQVTVSS
notes: monovalent Nanobody from E. coli; not shown: C-terminal c-myc and His6 tag
B2: OX40L15B07 (VHH)
VHH: EVQLVESGGGLVQAGGSLRLSCAASRSIGRLDRMGWYRHRTGEPRELVATITGGSSINYGDFVKGRFTISIDNAKNTVYLQMNNLKPEDTAVYYCNFNKYVTSRDTWGQGTQVTVSS
notes: as for B1
B3: OX40L01B11 (VHH)
VHH: EVQLVESGGGLVQAGGSLRLSCVASGRSFSTYIMGWFRQAPGKEREFVATISRSGITTRSADSVKGRFTISRDNAKNTVYLQMNSLKPEDTAVYYCAAGPYVEQTLGLYQTLGPWDYWGQGTQVTVSS
notes: as for B1

Assays:
[1] = target: T1, full length human OX40L expressed on …; test: cell-based or functional assay
[2] = target: T1, full length human OX40L expressed on …; test: competition FACS with hOX40/Fc on CHO-hOX40L
Protocol: The competition FACS assay was performed as described in example 2.

[3] = target: T2, recombinant human OX40L (extracellular …); test: SPR, after second injection of buffer HBS-EP+
Protocol: (§1) In addition, it was investigated to what extend the 7 anti-OX40L Nanobodies have a different or identical or overlapping epitope. Standard conditions were as described above. […] 1300 RU. A dual injection was performed at 10 μl/min for 2 min, starting with 500 nM of the first Nanobody, followed by 500 nM of the second Nanobody. After 10 min dissociation, regeneration of the surface was performed by injection of 50 mM NaOH for 5-20 sec at 100 μl/min.

[4] = target: T1, full length human OX40L expressed on …; test: FACS binding to CHO cells, anti-c-myc detection
Protocol: (§2) Transfection of CHO K1 with the respective expression plasmid DNA and selection of clones with high expression levels was performed as described in Example 1. Binding of the Nanobodies to the cell surface expressed OX40L was assessed by FACS analysis of cells as described below.
(§3) After washing bound Nanobodies were detected in FACSArray™ using mouse anti-c-myc and PE conjugated goat anti-mouse IgG.

[5] = target: T3, cynomolgus OX40L expressed on CHO cells; test: FACS binding to CHO cells, anti-c-myc detection
Protocol: as §2, §3

[6] = target: T2, recombinant human OX40L (extracellular …); test: SPR, second injection after competitor OX40L01B11
Protocol: as §1

[7] = target: T2, recombinant human OX40L (extracellular …); test: SPR, second injection after competitor OX40L01E07
Protocol: as §1

[8] = target: T2, recombinant human OX40L (extracellular …); test: SPR, second injection after competitor OX40L01E10
Protocol: as §1

[9] = target: T2, recombinant human OX40L (extracellular …); test: SPR, second injection after competitor OX40L15B07
Protocol: as §1

[10] = target: T2, recombinant human OX40L (extracellular …); test: SPR, second injection after competitor OX40L18E09
Protocol: as §1

[11] = target: T2, recombinant human OX40L (extracellular …); test: SPR, second injection after competitor OX40L19A07
Protocol: as §1

[12] = target: T2, recombinant human OX40L (extracellular …); test: SPR, second injection after competitor OX40L19D08
Protocol: as §1

[13] = target: T4, biotinylated hOX40L (R&D Systems, …); test: AlphaScreen, 31 pM biotinylated hOX40L + 80 pM OX40/Fc
Protocol: (§4) Next, streptavidin donor beads were added and incubated for an additional 1 hour. Fluorescence was measured by reading plates on the EnVision Multilabel Plate Reader using an excitation wavelength of 680 nm and an emission wavelength of 520 nm.

[14] = target: T4, biotinylated hOX40L (R&D Systems, …); test: AlphaScreen, 120 pM biotinylated hOX40L + 0.2 nM hOX40/Fc
Protocol: as §4

[15] = target: T1, full length human OX40L expressed on …; test: competition FACS, 3.1 nM hOX40/Fc on hOX40L expressing cells

Binder | IC50, IL4 production, T-cell activation assay, donor 1 [1] | IC50, IL4 production, T-cell activation assay, donor 2 [1] | IC50, IL4 production, T-cell activation assay, donor 3 [1] | IC50 [2] | Binding Level sample 2 (RU) [3] | Binding Level sample 2 - sample 1 (RU) [3] | EC50 [4] | EC50 [5] | Binding Level sample 2 (RU) [6] | Binding Level sample 2 - sample 1 (RU) [6] | Binding Level sample 2 (RU) [7] | Binding Level sample 2 - sample 1 (RU) [7] | Binding Level sample 2 (RU) [8] | Binding Level sample 2 - sample 1 (RU) [8] | Binding Level sample 2 (RU) [9] | Binding Level sample 2 - sample 1 (RU) [9] | Binding Level sample 2 (RU) [10] | Binding Level sample 2 - sample 1 (RU) [10] | Binding Level sample 2 (RU) [11] | Binding Level sample 2 - sample 1 (RU) [11] | further results
B1 | 260 nM | 320 nM | 125 nM | 11 nM | 212 RU | -9 RU | 4.03 nM | 4.9 nM | 486 RU | 194 RU | 192 RU | 11 RU | 289 RU | 62 RU | 252 RU | 55 RU | 238 RU | 45 RU | 240 RU | 63 RU | IC50, IL4 production, T-cell activation assay, donor 4 [1]: 169 nM; Binding Level sample 2 (RU) [12]: 252 RU; Binding Level sample 2 - sample 1 (RU) [12]: 23 RU; IC50 [13]: 0.229 nM; IC50 [14]: 0.423 nM; IC50 [15]: 8.89 nM
B2 | 236 nM | 249 nM | 73 nM | 2 nM | 155 RU | -40 RU | 2.43 nM | 3.23 nM | 324 RU | -9 RU | 198 RU | 12 RU | 237 RU | 17 RU | 198 RU | 5 RU | 189 RU | 2 RU | 200 RU | 26 RU | Binding Level sample 2 (RU) [12]: 217 RU; Binding Level sample 2 - sample 1 (RU) [12]: -7 RU; IC50 [13]: 0.125 nM; IC50 [14]: 0.3 nM; IC50 [15]: 1.61 nM
B3 | 230 nM | 188 nM | 80 nM | 5 nM | 383 RU | -57 RU | 2.94 nM | 3.39 nM | 380 RU | 7 RU | 399 RU | 205 RU | 296 RU | 76 RU | 259 RU | 61 RU | 238 RU | 48 RU | 358 RU | 180 RU | IC50, IL4 production, T-cell activation assay, donor 4 [1]: 220 nM; Binding Level sample 2 (RU) [12]: 433 RU; Binding Level sample 2 - sample 1 (RU) [12]: 205 RU; IC50 [13]: 0.278 nM; IC50 [14]: 0.375 nM; IC50 [15]: 5.61 nM
